Laboratory results published in paper PMC12822413, “TSHR‐Targeting Nucleic Acid Aptamer Treats Graves' Ophthalmopathy via Novel Allosteric Inhibition” (Advanced Science, 2025).

Target: T1, thyrotropin receptor (TSHR), wild type, on HEK293T cells stably expressing it (TSHR-293T) (human, UniProt P16473-1)
T1 construct: human thyrotropin receptor, cDNA from GeneCopoeia (NM_000369.4) cloned into pLVX-Puro; also called TSHR-293T cells; source: HEK293T, lentiviral transduction (pLVX-Puro), puromycin selected, on cells
Test: flow cytometry on cells; competitive binding assay of M22 and the DNA aptamer YC3 on TSHR-293T cells; each in excess against the other
Settings: one partner purified

B1: Human monoclonal autoantibody to the TSHR (M22) (antibody, V domains shown)
VH: QVQLVQSGAEVKKPGESLKISCRGSGYRFTSYWINWVRQLPGKGLEWMGRIDPTDSYTNYSPSFKGHVTVSADKSINTAYLQWSSLKASDTGMYYCARLEPGYSSTWSVNWGQGTLVTVS
VL: LTVLTQPPSVSGAPRQRVTISCSGNSSNIGNNAVNWYQQLPGKAPKLLIYYDDQLPSGVSDRFSGSRSGTSASLAIRGLQSEDEADYYCTSWDDSLDSQLFGGGTRLTVL
notes: also called human TSAb; source: bought: RSR (Cardiff, UK)
binding result: binds
